Source: US20230280343A1

Key:
p300 [1] = molecular target: p300 (UniProt Q09472); assay: ELISA; ratio of Kd against native HIF1α
p300 [2] = molecular target: p300 (UniProt Q09472); assay: ELISA, total binding fit, average of three independent trials (FIG. 21)

Sequence of p300 (Q09472 323-423 limits assumed): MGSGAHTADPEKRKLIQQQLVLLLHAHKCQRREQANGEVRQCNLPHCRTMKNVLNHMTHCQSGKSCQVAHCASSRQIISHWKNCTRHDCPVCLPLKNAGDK

Binder | fold improvement over native HIF1α (p300 [1]) [fold] | Kd (p300 [2]) [nM]
HIF1α-MAP-1 (H-MAP-1) (designed binder) MRGSHHHHHHGSACELAATATATATATATAACGDLAPQMLRELQETNAALQDVRELLRQQVKEITFLKNTLLEIWKAAKEAAKEAAAKIEEQAKTFLDKFNGEELLRALDQVN | 47 | 0.00808
HIF1α-MAP-2 (H-MAP-2) (designed binder) MRGSPKKKRKVGGGGSHHHHHHHHGSACELAATATATATATATAACGDLAPQMLRELQETNAALQDVRELLRQQVKEITFLKNTLLEIWKAAKEAAKEAAAKIEEQAKTFLDKFNGEELLRALDQVN |  | 0.0382
